Where a chain is given by its changes, count along the chain named.
B1: hIFNγRα(23-239).SG.hFc (Fc fusion, not shown: a dimerising Fc or GST)
chain: DLGPSSVPTPTNVTIESYNMNPIVYWEYQIMPQVPVFTVEVKNYGVKNSEWIDACINISHHYCNISDHVGDPSNSLWVRVKARVGQKESAYAKSEEFAVCRDGKIGPPKLDIRKEEKQIMIDIFHPSVFVNGDEQEVDYDPETTCYIRVYNVYVRMNGSEIQYKILTQKEDDCDEIQCQLAIPVSSLNSQYCVSAEGVLHVWGVTTEKSKEVCITIFSG
B2: hIFNγRα(24-239).SG.hFc (Fc fusion, not shown: a dimerising Fc or GST)
chain: LGPSSVPTPTNVTIESYNMNPIVYWEYQIMPQVPVFTVEVKNYGVKNSEWIDACINISHHYCNISDHVGDPSNSLWVRVKARVGQKESAYAKSEEFAVCRDGKIGPPKLDIRKEEKQIMIDIFHPSVFVNGDEQEVDYDPETTCYIRVYNVYVRMNGSEIQYKILTQKEDDCDEIQCQLAIPVSSLNSQYCVSAEGVLHVWGVTTEKSKEVCITIFSG
B3: hIFNγRα(23-239).TG.hIFNγRβ.SG.hFc (Fc fusion, not shown: a dimerising Fc or GST)
chain: DLGPSSVPTPTNVTIESYNMNPIVYWEYQIMPQVPVFTVEVKNYGVKNSEWIDACINISHHYCNISDHVGDPSNSLWVRVKARVGQKESAYAKSEEFAVCRDGKIGPPKLDIRKEEKQIMIDIFHPSVFVNGDEQEVDYDPETTCYIRVYNVYVRMNGSEIQYKILTQKEDDCDEIQCQLAIPVSSLNSQYCVSAEGVLHVWGVTTEKSKEVCITIFTGSQLPAPQHPKIRLYNAEQVLSWEPVALSNSTRPVVYQVQFKYTDSKWFTADIMSIGVNCTQITATECDFTAASPSAGFPMDFNVTLRLRAELGALHSAWVTMPWFQHYRNVTVGPPENIEVTPGEGSLIIRFSSPFDIADTSTAFFCYYVHYWEKGGIQQVKGPFRSNSISLDNLKPSRVYCLQVQAQLLWNKSNIFRVGHLSNISCYETMADASTELQSG
B4: hIFNγRα(24-239).TG.hIFNγRβ.SG.hFc (Fc fusion, not shown: a dimerising Fc or GST)
chain: LGPSSVPTPTNVTIESYNMNPIVYWEYQIMPQVPVFTVEVKNYGVKNSEWIDACINISHHYCNISDHVGDPSNSLWVRVKARVGQKESAYAKSEEFAVCRDGKIGPPKLDIRKEEKQIMIDIFHPSVFVNGDEQEVDYDPETTCYIRVYNVYVRMNGSEIQYKILTQKEDDCDEIQCQLAIPVSSLNSQYCVSAEGVLHVWGVTTEKSKEVCITIFTGSQLPAPQHPKIRLYNAEQVLSWEPVALSNSTRPVVYQVQFKYTDSKWFTADIMSIGVNCTQITATECDFTAASPSAGFPMDFNVTLRLRAELGALHSAWVTMPWFQHYRNVTVGPPENIEVTPGEGSLIIRFSSPFDIADTSTAFFCYYVHYWEKGGIQQVKGPFRSNSISLDNLKPSRVYCLQVQAQLLWNKSNIFRVGHLSNISCYETMADASTELQSG
B5: hIFNγRα(33-239).TG.hIFNγRβ.SG.hFc (Fc fusion, not shown: a dimerising Fc or GST)
chain: TNVTIESYNMNPIVYWEYQIMPQVPVFTVEVKNYGVKNSEWIDACINISHHYCNISDHVGDPSNSLWVRVKARVGQKESAYAKSEEFAVCRDGKIGPPKLDIRKEEKQIMIDIFHPSVFVNGDEQEVDYDPETTCYIRVYNVYVRMNGSEIQYKILTQKEDDCDEIQCQLAIPVSSLNSQYCVSAEGVLHVWGVTTEKSKEVCITIFTGSQLPAPQHPKIRLYNAEQVLSWEPVALSNSTRPVVYQVQFKYTDSKWFTADIMSIGVNCTQITATECDFTAASPSAGFPMDFNVTLRLRAELGALHSAWVTMPWFQHYRNVTVGPPENIEVTPGEGSLIIRFSSPFDIADTSTAFFCYYVHYWEKGGIQQVKGPFRSNSISLDNLKPSRVYCLQVQAQLLWNKSNIFRVGHLSNISCYETMADASTELQSG
B6: hIFNγRα(23-239).TG.hFc.ARA.hIFNγRβ (Fc fusion, not shown: a dimerising Fc or GST)
chain (part 1 of 2): B1 chain with S218T
chain (part 2 of 2): ARASQLPAPQHPKIRLYNAEQVLSWEPVALSNSTRPVVYQVQFKYTDSKWFTADIMSIGVNCTQITATECDFTAASPSAGFPMDFNVTLRLRAELGALHSAWVTMPWFQHYRNVTVGPPENIEVTPGEGSLIIRFSSPFDIADTSTAFFCYYVHYWEKGGIQQVKGPFRSNSISLDNLKPSRVYCLQVQAQLLWNKSNIFRVGHLSNISCYETMADASTELQ
B7: hIFNγRα(24-239).TG.hFc.ARA.hIFNγRβ (Fc fusion, not shown: a dimerising Fc or GST)
chain (part 1 of 2): B2 chain with S217T
chain (part 2 of 2): B6 chain (part 2 of 2)

Each binder was assayed against human interferon γ (human) (UniProt P01579) (assay: cell-based or functional assay).
human interferon γ (human), sequence (P01579 24-166 limits assumed): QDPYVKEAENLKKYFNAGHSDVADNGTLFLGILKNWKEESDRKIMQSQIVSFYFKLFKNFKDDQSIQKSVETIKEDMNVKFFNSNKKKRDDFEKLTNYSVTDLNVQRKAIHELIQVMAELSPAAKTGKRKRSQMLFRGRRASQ

**Q.** What does the source list for B1?
**A.** IC50 (M), GAS-luciferase bioassay in HEK293 cells: 4.6e-09 M; IC50 (M), ISRE-luciferase bioassay in HEK293 cells: 2.57e-09 M

**Q.** For B2, which IC50 (M), GAS-luciferase bioassay in HEK293 cells is on record?
**A.** 2.1e-08 M

**Q.** And the IC50 (M), ISRE-luciferase bioassay in HEK293 cells?
**A.** 1.2e-08 M

**Q.** How did the IC50 (M), GAS-luciferase bioassay in HEK293 cells turn out when B3 was run?
**A.** 1.9e-10 M

**Q.** And the IC50 (M), ISRE-luciferase bioassay in HEK293 cells?
**A.** 5.3e-11 M

**Q.** With B4 as the binder, how does the IC50 (M), GAS-luciferase bioassay in HEK293 cells read?
**A.** 3.2e-09 M

**Q.** What about the IC50 (M), ISRE-luciferase bioassay in HEK293 cells of the same binder?
**A.** 1.3e-09 M

**Q.** For B5, which IC50 (M), GAS-luciferase bioassay in HEK293 cells is on record?
**A.** 1.3e-08 M

**Q.** And the IC50 (M), ISRE-luciferase bioassay in HEK293 cells?
**A.** 2.4e-07 M

**Q.** For B6, which IC50 (M), GAS-luciferase bioassay in HEK293 cells is on record?
**A.** 1e-09 M

**Q.** And the IC50 (M), ISRE-luciferase bioassay in HEK293 cells?
**A.** 7.9e-10 M

**Q.** For B7, which IC50 (M), GAS-luciferase bioassay in HEK293 cells is on record?
**A.** 1.1e-08 M

**Q.** And the IC50 (M), ISRE-luciferase bioassay in HEK293 cells?
**A.** 6e-09 M

Source: patent US20070020283A1
